# Source: paper PMC6160459 (Scientific Reports, 2018)
# Molecular target: T1, α4 integrin (CD49d) on JeKo-1 cells (Homo sapiens, endogenous on JeKo-1 cells, UniProt P13612)
# T1 construct: integrin alpha-4 (CD49d); also called α4 chain of α4β1 integrin (VLA-4) and α4β7 integrin (LPAM-1); source: endogenous, on JeKo-1 cells
# Assay: flow cytometry on cells; Ntz-01 premixed with natalizumab 1 h on ice in 5% FBS/DPBS/0.05% NaN3, then CD49d+ JeKo-1 cells 20 m on ice; cell-bound natalizumab detected with anti-human IgG4 Fc Alexa Fluor 647
# Details: one partner purified
binder,measurement,value
"Natalizumab (antibody, V domains shown, humanized heavy-chain variable region; light chain; IgG4; also called Tysabri; source: obtained from the UCSD Moores Cancer Center Pharmacy) VH: QVQLVQSGAEVKKPGASVKVSCKASGFNIKDTYIHWVRQAPGQRLEWMGRIDPANGYTKYDPKFQGRVTITADTSASTAYMELSSLRSEDTAVYYCAREGYYGNYGVYAMDYWGQGTLVTVSS VL: DIQMTQSPSSLSASVGDRVTITCKTSQDINKYMAWYQQTPGKAPRLLIHYTSALQPGIPSRFSGSGSGRDYTFTISSLQPEDIATYYCLQYDNLWTFGQGTKVEIK",binding result,binds
